Measurements taken from US20180148514A1, “MULTIVALENT MEDITOPES, MEDITOPE-BINDING ANTIBODIES AND USES THEREOF” (City of Hope, priority 2014, published 2018).

B1: TVM: trivalent meditope, peptide sequence of SEQ ID NO: 231, expressed in E. coli (protein)
chain: MGGGSWSHPQFEKGGGSGGGMSDSEVNQEAKPEVKPEVKPETHINLKVSDGSSEIFFKIKKTTPLRRLMEAFAKRQGKEMDSLRFLYDGIRIQADQTPEDLDMEDNDIIEAHREQIGGGGSAAPSSAPSPSAPCQFDLSTRRLSCGGASPAASPSAPSSPAPKAPSAAPSSAPSPSAPGGCQFDLSTRRLSCGGASPAASPSAPSSPAPKAPSAAPSSAPSPSAPGGCQFDLSTRRLSCGGSPSAPSSPSSPKLPETG
modifications: (1)..(258) His6-SMT-Trivalent meditope (TVM) sequence (Amino Acid)
B2: BVM: bivalent meditope, peptide sequence of SEQ ID NO: 229 (protein)
chain: MGSSHHHHHHSSGLVPRGSHMGGGSWSHPQFEKGGGSGGGMSDSEVNQEAKPEVKPEVKPETHINLKVSDGSSEIFFKIKKTTPLRRLMEAFAKRQGKEMDSLRFLYDGIRIQADQTPEDLDMEDNDIIEAHREQIGGGGSAAPSSAPSPSAPCQFDLSTRRLSCGGASPAASPSAPSSPAPKAPSAAPSSAPSPSAPGGCQFDLSTRRLSCGGASPAASPSAPSSPAPK
modifications: (1)..(230) His6-SMT3-Bivalent meditope (BVM) sequence (Amino Acid)
B3: MOR-208: Meditope-enabled MOR208 (CD-19 antibody), light chain SEQ ID NO: 226, heavy chain SEQ ID NO: 227, pHrodo labeled (protein)
light: DIVMTQSPAILSLSPGERATLSCRSSKSLQNVNGNTYLYWFQQKTNGSPRLLIYRMSNLNSGVPDRFSGSGSGTEFTLTISSLEPEDEADYYCIQHLEYPITFGAGTKLEIKRTVAAPSVFIFPPSDEQLKSGTASVVCLLNNFYPREAKVQWKVDNALQSGNSQESVTEQDSKDSTYSLSSTLTLSKADYEKHKVYACEVTHQGLSSPVTKSFNRGEC
heavy: EVQLVESGGGLVKPGGSLKLSCAASGYTFTSYVMHWVRQSPGKGLEWIGYINPYNDGTKYNEKFQGRVTISSDKSISTAYMELSSLRSEDTAIYYCARGTYYYGTRVFDYWGQGTLVTVSSASTKGPSVFPLAPSSKSTSGGTAALGCLVKDYFPEPVTVSWNSGALTSGVHTFPAVLQSSGLYSLSSVVTVPSSSLGTQTYICNVNHKPSNTKVDKKVEPKSCDKTHTCPPCPAPELLGGPDVFLFPPKPKDTLMISRTPEVTCVVVDVSHEDPEVQFNWYVDGVEVHNAKTKPREEQFNSTFRVVSVLTVVHQDWLNGKEYKCKVSNKALPAPEEKTISKTKGQPREPQVYTLPPSREEMTKNQVSLTCLVKGFYPSDIAVEWESNGQPENNYKTTPPMLDSDGSFFLYSKLTVDKSRWQQGNVFSCSVMHEALHNHYTQKSLSLSPGK
modifications: pHrodo label; (1)..(219) MOR-208 Light chain; (1)..(451) MOR-208 Heavy chain

Key:
[1] = test system: Meditope-enabled trastuzumab version 2; assay: SPR multivalent meditope valency test at varying ligand densities; assay type: binding; conditions: for Ka / t1/2: 37° C., 1:1 fit
Experimental: The low density channel was approximately 150 RU (FIG. 19A), the medium density channel was approximately 750 RU (FIG. 19B), and the high density channel was approximately 1500 RU (FIG. 19C).
Trivalent meditope (TVM) (SEQ ID NO: 231) concentrations were prepared as a 5-fold dilution series from 1 μM to 2.6 pM in HBS-EP+. Samples were flowed over all four channels at 30 μL/min at 37° C. Sensograms were double referenced to the blank immobilization on channel 1 and with two “0” concentration buffer blanks.
A control meditope peptide was run at the beginning and end of the experiment to assess for loss of surface activity during the experiment. Less than 5% decrease in signal was observed on the most dense ligand surface after the experiment was completed. Regeneration buffer for the experiment was a pulse of 10 mM glycine pH 3.0 with variable time from 2-10 seconds followed by a 30 sec pulse of running buffer HBS-EP+.
Data fits were performed using BiaEvaluation software with the 1:1 fit model. Data fit quality to the 1:1 binding model decreased as the surface density of ligand increased and the off rate was not well determined due to lack of curvature.

SKBR3 cells = assay: Microscopy of SKBR3 cells with labeled TVM and trastuzumab variants; assay type: cell-based
Experimental: TVM was labeled with NHS-Alexa Fluor 647 following the manufacturer's protocol (Thermo Fisher Scientific, Waltham Mass.) 0.1 M sodium bicarbonate buffer pH 8.0 at room temperature for 1 hour).

[2] = test system: meditope enabled antibody trastuzumab; assay: SPR analysis of BVM and TVM gel filtration fractions; assay type: binding; conditions: BVM fractions 26-29, TVM fractions 21-23
Raji-B cells = assay: pHrodo-labeled CD-19 antibody internalization, fluorescence microscopy, Raji-B; assay type: cell-based, human; conditions: 100 nM antibody with or without 100 nM meditope-Fc, 30 minutes, 37° C., n=8
Experimental: Raji-B cells, a human B lymphocyte cell line derived from human lymphoblast, CCL-86™, ATCC®, were stained for fluorescence microscopy to determine receptor-mediated endocytosis rates of the pHrodo™-labeled CD-19 antibody. Cells were stained in Nunc® Lab-Tek® II chambered 8 well coverglass polystyrene chambers (0.7 cm^2/well). Cells were stained using either 100 nM antibody and 100 nM of Alexa Fluor 488®-labeled meditope-Fc (SEQ ID NO: 236) or 100 nM antibody alone (control) for 30 minutes at 37° C. in serum-free media. Nuclei of Raji-B cells were also stained with Hoechst 33342 (2 μg/mL final concentration for 20 minutes).
Cells were imaged with a confocal microscope using appropriate wavelength settings for pHrodo™-labeled antibodies, Alexa Fluor 488-labeled meditope-Fc, and Hoechst 33342-labeled nuclei. Z sectioning permitted visualization of the internalized materials and all quantitative measurements were taken at the same defined section height. Cells were visualized and quantified at each time point for each visualization event. Total fluorescence of each stain inside and outside of imaged cells were calculated using ImageJ analysis at a single time point of 30 minutes. Total staining for MOR-208 alone was calculated as 1797.71±194.97 (n=8). Total staining for MOR-208 bound to meditope-Fc was calculated as 4430.43±632.59 (n=8).

[3] = most densely immobilized surface

Molecule	Ka ([1]; density 150 RU)	t1/2 ([1]; density 150 RU)	Ka ([1]; density 750 RU)	t1/2 ([1]; density 750 RU)	Ka ([1]; density 1500 RU)	t1/2 ([1]; density 1500 RU)	half-life [1, 3]	improvement of half-life over monovalent meditope [1, 3]	cell morphology and attachment (SKBR3 cells; labeled TVM with meditope enabled antibody trastuzumab)	cell morphology and attachment (SKBR3 cells; labeled TVM with parental trastuzumab)	binding (SPR) [2]	total staining (total fluorescence, ImageJ) (Raji-B cells)
B1	8700 M⁻¹ s⁻¹	0.4 h	10000 M⁻¹ s⁻¹	1.3 h	9800 M⁻¹ s⁻¹	2.4 h	2.42 h	> 30 fold	rounded morphology and frequently detached from the surface of the coverslides	not observed	bound meditope enabled antibody trastuzumab antibodies	–
B2	–	–	–	–	–	–	–	–	–	–	bound meditope enabled antibody trastuzumab antibodies	–
B3	–	–	–	–	–	–	–	–	–	–	–	1797.71±194.97
